Results taken from IntAct's records for PubMed 23770091.

B1: Discoidin, CUB and LCCL domain-containing protein 2 (Homo sapiens), Q96PD2 (parent)
chain: MASRAVVRARRCPQCPQVRAAAAAPAWAALPLSRSLPPCSNSSSFSMPLFLLLLLVLLLLLEDAGAQQGDGCGHTVLGPESGTLTSINYPQTYPNSTVCEWEIRVKMGERVRIKFGDFDIEDSDSCHFNYLRIYNGIGVSRTEIGKYCGLGLQMNHSIESKGNEITLLFMSGIHVSGRGFLASYSVIDKQDLITCLDTASNFLEPEFSKYCPAGCLLPFAEISGTIPHGYRDSSPLCMAGVHAGVVSNTLGGQISVVISKGIPYYESSLANNVTSVVGHLSTSLFTFKTSGCYGTLGMESGVIADPQITASSVLEWTDHTGQENSWKPKKARLKKPGPPWAAFATDEYQWLQIDLNKEKKITGIITTGSTMVEHNYYVSAYRILYSDDGQKWTVYREPGVEQDKIFQGNKDYHQDVRNNFLPPIIARFIRVNPTQWQQKIAMKMELLGCQFIPKGRPPKLTQPPPPRNSNDLKNTTAPPKIAKGRAPKFTQPLQPRSSNEFPAQTEQTTASPDIRNTTVTPNVTKDVALAAVLVPVLVMVLTTLILILVCAWHWRNRKKKTEGTYDLPYWDRAGWWKGMKQFLPAKAVDHEETPVRYSSSEVNHLSPREVTTVLQADSAEYAQPLVGGIVGTLHQRSTFKPEEGKEAGYADLDPYNSPGQEVYHAYAEPLPITGPEYATPIIMDMSGHPTTSVGQPSTSTFKATGNQPPPLVGTYNTLLSRTDSCSSAQAQYDTPKAGKPGLPAPDELVYQVPQSTQEVSGAGRDGECDVFKEIL

Key:
crkl_human CRKL, P46109 = variants of: B1; details: with crkl_human CRKL
Sequence of crkl_human CRKL, P46109 (P46109 whole entry): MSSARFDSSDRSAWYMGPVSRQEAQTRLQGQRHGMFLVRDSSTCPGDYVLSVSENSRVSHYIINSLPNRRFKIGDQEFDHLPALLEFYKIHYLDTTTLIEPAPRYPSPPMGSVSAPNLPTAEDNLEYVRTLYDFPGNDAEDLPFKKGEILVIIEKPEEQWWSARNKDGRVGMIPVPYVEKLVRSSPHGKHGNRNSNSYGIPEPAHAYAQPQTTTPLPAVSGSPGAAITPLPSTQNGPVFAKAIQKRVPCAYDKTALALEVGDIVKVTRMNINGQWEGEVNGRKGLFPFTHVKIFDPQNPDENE

fyn_human FYN, P06241 = variants of: B1; details: with fyn_human FYN
Sequence of fyn_human FYN, P06241 (P06241 whole entry, looked up): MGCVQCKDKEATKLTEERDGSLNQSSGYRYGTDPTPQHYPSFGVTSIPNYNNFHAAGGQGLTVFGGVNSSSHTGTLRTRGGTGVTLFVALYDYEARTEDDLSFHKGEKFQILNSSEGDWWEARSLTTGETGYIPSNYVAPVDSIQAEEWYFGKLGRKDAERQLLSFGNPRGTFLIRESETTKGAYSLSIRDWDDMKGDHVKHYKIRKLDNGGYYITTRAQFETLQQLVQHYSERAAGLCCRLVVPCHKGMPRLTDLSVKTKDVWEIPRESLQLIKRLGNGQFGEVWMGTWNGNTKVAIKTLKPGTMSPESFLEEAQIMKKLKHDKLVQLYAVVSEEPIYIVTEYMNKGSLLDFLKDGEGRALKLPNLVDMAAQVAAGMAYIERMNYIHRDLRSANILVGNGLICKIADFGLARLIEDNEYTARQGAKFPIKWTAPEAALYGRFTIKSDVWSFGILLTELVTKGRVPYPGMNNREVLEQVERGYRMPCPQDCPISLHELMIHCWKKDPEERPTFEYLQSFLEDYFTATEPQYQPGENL

Variant	effect of a mutation on the interaction (crkl_human CRKL, P46109)	effect of a mutation on the interaction (fyn_human FYN, P06241)
Y655F	disrupting interaction	disrupting interaction
Y732F	disrupting interaction	disrupting interaction
Y565F	disrupting interaction	disrupting interaction
Y666F	disrupting interaction	disrupting interaction
Y750F	disrupting interaction	disrupting interaction
Y677F	disrupting interaction	disrupting interaction
Y621F	disrupting interaction	disrupting interaction
